In the NTF2 design screens of Basanta et al. (2020):

test: protease stability score; higher = more stable; yeast display proteolysis, trypsin and chymotrypsin;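 also: log10 excess protease needed over predicted unfolded state with 0 meaning unfolded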

Sequence | protease stability score
DEEAQRLLEKAMKALEQNNPQQFVNLLDPNATMIVGDKVYHGRESARKALDDIRSTMRVEVKDVKASAQGDKVQARMRVILDHNGKPSDRTQNITVRVHNGKMTSVELKTDT | 0.88
DEEAREILRRFFTALNTNDEDQLVELVDKDVKIQVGDKEIHGREELKEHQVESYRRSRVDFRVTDIKASGDKVTAKIVVSRESDGQPRKTTQRMEFRFENGHMKHVHEDSDG | 0.064
DEEARKEIKKAARAYKTGDWQELVHQMDEDVKVEYGDHKIDGHEQVQKWVDENRKQLTMSVKSLSVELSGNTASVDMKHDARHNGRPRTQTAHIEIQAHNGRLKRVKIEYTQ | -0.178
DEEARKLVHRILEAWKHGDEEHFKEQFDPNVDVDVGDKRYHGRHTIATRVQRELDEIDIRIEVHHITVEGDRADMDATVVLNINGKPVHVRVTWVFQITNGVAVYMQLRVSEDQRREQES | 1.15
DEEARNVFEEILKAIRHGDPDHAKNLADPNARIRVGDKKVDGMEQWATEMHHNWQEIRIHMRITSVDHQGEKVRLHLSRTSNHNGRPRKADIDLEMVATNGKLKSQKHSQKK | 0.2
DEEARRVWHKLMDALRTGDPEKFRNNADPNARIQYGNETIHGMRDNARTVMTMLHRLDVEWEIKDVKVRPNRIDVIYVLRVHIDGKPYQVHIQADATFHNGKLQSIRKRVDEDEQRKLDR | 0.379
DEEASKKIKTLVQILNTGDPDKAVKLFDPNARFQVGDKEISGREQFKEVLKKLKHKMRNDIKVKHVEVNNGHANAHAVMTVQVNGQPDHFTFIMRIQWHNGVIEHREVQMDEDELRRYNS | 0.339
DEEASKQLEEYLRALQTGDSHRVQQLLDPNAKARVGDHTYHGHKEILDWLNKLNEKMRFSIERLSVSVRGDQVEFSFKFDATFNGRPFHASQTMQINVHNGRLKKLTIQLDPEQLDTQRS | -0.088
DEEASKRFEKFQHLLRDGNEDRVQKLVDPNVKFDLGSTSLHGMEEVARTLVQRYRSIRIRQEIDTYEVKGDTVRFKQKVQWNINGQPFSDHITFEAHQTNGKFSHVVIRIDPQLLEELRK | 0.503
DEEATKELREWLHNRTKNNEEELHKYADPNAKFVIGDKTYHGMEEAVESQVHKDKHMNIHIESIHMDADGEHVRASEVVTFEVNGKPFRYSFRYNVTMSNGRLKSQSVRVDERDEEQEKQ | -0.325
DEEATKNAERLMRALNTNNEDEVLEMVDKNATMQYGDKTYHGREEISQAVDERRKEMRVHLRRVTVNAQGDKLDIKANMEVDHNGRPIKVNLRIEAKAHNGRITDIKIETDPELTRQRRT | 0.539
DEEAVEIAHEVNKALNENDEHRLRELFDPNAKIQYGDNVIKGSDNLVKDIRRKSKRMRVRFDVKSIDNQGDKVEIDANYRQTHDGEPRTRKVDAKLRVENGRIKHFSARFTP | -0.044
DEEAVKKMMEEWHKALESKNDDQFRKIYKPNVEWVNGDTKRQGQEDVVKMLQKVQKDGAEFQVRDAKVEGDRARMVYDLNVGDKTATFTVEMDAEGGRVDRVQVEIDEKAKKVLTEG | 0.294
DEEAVKRANEMVEAWEHGDESRFMKLVDPNAQVRVGDKEVHGKEDMNRSIQEESRQLRVHRRVESVESQGNEVKIDLVFTQNVNGQPIQQRVDVVITFRNGKAVDIQLDIPEDQQQQHRR | -0.131
DEEAVKRVEHFMKNIREGNEQKAREYADKNATIHVGDKTVHGREDLERWVRQVKEEQRMDVRSFHATADNGNVDVKVTAEIEHNGQPRHHHYTAQFNISNGKIQSVTVDDHP | -0.099
DEEAVKTLEHMFEAVRDGNPDEVKKQVDPNVKIEIGDKTYKGKDQWAQDVETKKDEMRFTYHSIEFKNEPNRVKISIDRTETHNGQPRRHHVDMEARVHNGVIVRMKAKESG | -0.124
DEEAVNIHKTILEAEQSGDPDKFRQNVDPNVRYRYGDKEIHGREQAAERVKEKRDQARFQFDSIHIKVHGDKARAHFDFVVDHNGNPHRMSFTVVFNAHGDKLEFEIIKFDPRMKKELDS | 0.198
DEEAVNLINRLLEARKYNDPDSMKRLADENAQFVIGDKEVKGMETYARHVVQTMSRWRIDIKSVHHQSRGSKAEVDVRAKVNVNGRPDTLSITYRAHVTNGRIKELEVRFDPDQHRKLTS | 0.019
DEEAVRHYHEMVREEETGNEDEAMKYFDPNATVRIGDKTVKGKDSIRKWVRDRRDEMRVEIHQLNVHVSNGQIDVSVDFTKEHNGRPQTMQQKVRVTATNGKIKKVNNHDDG | -0.261
DEEAYRLFSEMEKARKDNDEEKLRELADEDVRFEVGDSVIKGMTRWATRVVQTAREQRFSYDIKRWHIEGDKVVVHREVRESHNGQPRSRTVVYRAHVDNGRVKSVTVEDTG | 0.158
DEEDADRILKLLKKNNFEELARNADPNVHVRIGDTRIHGREEVTSHMKRLTDRIDHVDWRSMSVTGDRVVVRAVYTVNGDRIDFEIEIQFHNGRVVSVRFQARDEDDKHKYRKAEK | 0.428
DEEDAEDVVRKVNKILRDGDWEKFVNLMDKNAHARIGDQTYSGRSAAEDIARDVHRQVDHVEIKRVEVQGNTVHIDMVVEHNGREEKRVMDLIITNGRLRMVEYQHG | -0.107
DEEDAEKILRTAAKAVENGDHKKLVDLGKDGVEYQLADEKAHGPEVMKKVLDYQRKLGVRVELKEVHHEGNKVVTVLVYYHGNTKLEVQIHATADGGKIDRVEVKVPETLKKQLKHG | 0.137
DEEDAHEQVHRIVKALETGDPDQVVNQADENVRIHVGEKTVHGQEKVREFVEEYNEQVDDVNVRHVSLDGNKATVTIDIDVNGNKRRVHFRFQFDNGRVQTIRVDTS | 0.719
DEEDAKNAVRAVEALVTGDPDKMSKLFDKHASVEVGDKRVRGREEIRELAEQLEREMRLRVEIKHVQIQGDKVDVKFDAQRHHNGRPDDNKQTMHLTAHDGRVKNMSITSNG | -0.376

Sequence | protease stability score
DEEDAKRVEEMLEALRTGDWKKATDMADPDARFQIGDKRYHGMHQVAREWKNQYDQMRIEINVKEWNIHNGRVDLKFEQKNDHNGKPDNFRASATFQFHNGQLVEAQYQRDS | 0.634
DEEDAKVLKQVLENVESGDSKSAETLLDKDVKFVIGDKVLHGRTQYVDRVRRETKRMRVKRQVQHYEVNNGRVHMTIDIQYDIDGKPLRDQITLTAEFHNGRMQSLEVKMDRDFKRKVDK | 0.313
DEEDANDMRHVWEVLDTGDEERFLQMVDPNVKVVIGDKEYHGRENLRKFLQDQKREMSERIKSIRVHDHNGRIKINAHATNQQNGQPHSFNIDAEAELHNGKITHLNVQTDG | 2.17
DEEDANNVAEQMMEIVERGDEERASELADPNAKFNIGDKKYEGRENLQKAIRHFRQRADHLEIKSLSVTPGHLKMRFVVKHNGQRNEVVIHVKAHNGKIVEIQVRNS | 0.15
DEEDANRHVREFWKNVETGNEDDLRDLADPNARLFVGDKKYRGRSEMAKAFKEIRKNVDHFELKSVQEKGDKVKVVAVWNHNGRNVEMVVIFVAHNGRIKEVQVRHK | 0.233
DEEDAQTLQRVLNHGDPDEWVRLADENVHARVGDKTYSGREHLKTFWHKLREQVDEIEVKSVDISGDRVQADIIYVVNGKRIRVTMVAHVNNGRIKEYKIHYRNEEVRDQLREAQS | 0.793
DEEDDARKAAEALKAFFKGDPEKFRDLADEDVQVRIGDNVYTGRTEANEAVENFKRQVDHVEFKDLNNRGNKVFADVVVRFNGEDIRVTLYAEVHNGKLKYMQVDPTAQKQLEK | 0.65
DEEDDKEMEKAIRALLYGDPDKVKKLADPNVNIQYGDKEIQGREEVSKHVDNLRHESRMRVQTMDNDLSGDHAKFDVQYESNHNGKPDTRRVDINAKAHNGHVKHMQWNKDE | -0.25
DEEDDKKMAETLKRLHNTGNPDELLKHFDPDAKFQIGEKTVHGREQAQEFMKRIKDRVDHQSVDSIHAHNGQVNVQVKVEINGKTRVVDIVYHFHNGRFKQVVFDPRAIRRMKS | 0.175
DEEDDKKMNELLKQIQTGNDQKVERLIDPNANMHIGNQDIHGSEDVRKWIEKITKELNITFKVNHFRVKGDKIKIKVKINVKHNGQPDSDTIDLVARVENGHFTRIELHMDEKRWKKQVS | 1.15
DEEDDKRIAEDVVRQLQTGNPDQARDQADPNAEFRVGDRTIHGRDSFRRLMKETRDEVDKVQVQDFEMHNGHFSVNLVFNINGKEKLVHMSAQFKNGTIKHLSVQDQ | -0.36
DEEDDRRTAKRFAENVMKGNQDEARKLADEDATVNVGDQHVHGREELARVMHDLRRQVDHIQLDSLEVQGNKADINVTMRVNGRHVTADITVTVHNGRVKQFSLNPEVAQEIKR | -0.345
DEEDEARKMMEELDKAWKTGDSERYAQLLDPNARMVIGDKEYHGRDDVRKWFHEMLRRVDHVQLHLTSIDIRNGKVDARAEVRLNHNGKDTSDTVIFRLQHDNGHIKIRSVKNK | 0.251
DEEDEARTMADRIRHALENGDEQKFAEQADPNASVRIGDRTWHGRRQISNRLKEERERADHVELEIKSIKLHGDRVKIDFVLEQDINGRHETTQLTMTAELHNGNVRFKMMKEK | -0.332
DEEDEDWAEKVATTGNFDEAARDADQNATVKVGDKTWHGREEVTRAMDLLEKQADHVRVSRFKVENGEVNFHVVIEFNGNEIDVTANARFRNGRLTYFSIDARSEHESKSLQKLLE | 0.497
DEEDEERFEELLKAEEDGDEDRMNELVDENAEFHYGDTVIDGMTDYAREVVHRLNELRWHIDWDDMKQSNGRIQVRAKLVVKVNGTPNNDDVERQVQWDNGRVHQMNERFDSKKHKEMDK | -0.158
DEEDEEVVRQWLEAYKTGDPDQLKRNADPNARIQVGDKVLHGMEDAKTELKEQRDHQRFRFHMDSVSVHGNRVEITMKADVDVNGRPIHFTNSFVFTLHNGKIRHIDLQVPEELKHQMTK | -0.125
DEEDEKHIDDVLKQGDFDEMARNADKDATVRIGEKEYRGREDVVRMLEIIHKRADEVHVDSVRVTNGRLKMDVVFDVNGVQANVILVINVHNGKIKNITLKYRNEELSRKLDKILR | 0.821
DEEDEQKIAKDFVRALERGDEDRVMELADPNVRIVIGDKRYEGREELKKLVRTFKKRADHAEVHSIDIRNGTVIVDYVIHHNGRNSQQYLYVSFNNGRIKSMRVQDG | 2.07
DEEDEQKLAQTLAEVWKQNDEDQFVRLLDKDARVKVGDNEFRGREEAKRMMQELHRRVDHMEIKSVHAKNGSITATLRAEINGKEWRFILEAVYHNGQVKSVHIRDQ | 1.68
DEEDEREVAKQAVDDLVKGNPDRASELADPNVHVEIGDKTYRGQTQMASALKDFRKNVDSVQIDDLKLHGNKADVDMRVDHNGQQQKYHVIVIVHNGRVSELKIKEK | 1.48
DEEDERKFAEEFHKVLQTNNEEEIRKMFDPNVTAHVGDKRIHGREEVATVIARLARRADHIRLEHVEVENGRITMTLRADVDGRDVQFRVILTVRNGVVQEVQFDYTSEDQFREIQK | 1.59
DEEDERRKVQDVAKAIKKGNEKELRKLADEDAKWRVGDTDLHGMERIQKDQATRRREVDNVEIKSVDVHNGRAHVTFVVNHNGKNVEVTNTADFKNGKVKNVQVDPSKVEELKK | -0.328
DEEDERTVKERMKKNNFDELAKNADENARATYGDKTYHGREQVRKAAKDFKDAVDRVKIDSISVHNGTVRMEFTVVINGRHFEMVLYVHVHNGKVQHMEFQATDDKIRKDLKRLQE | -0.275
DEEDESRHAEIAIRALAQGDEEELRRQVDPNARVRIGEFNVHGREAAHKAVKTLQEEFDHVDLTHVTTRGEKARVDVKYKKNGKEVTFQLEAKVHDGKVKELQMEKG | -0.241
